Source: patent CN115043938A (DUAN LIANGWEI; JIANG ZHIHUA; WANG HUI, dated 2022)

How the values were obtained:
[1] = target: 新型冠状病毒野生型RBD蛋白 (RBD-WT, cat#Z03479, Gensript) (SARS-CoV-2 野生型, UniProt P0DTC2 319-541); test: BIAcore SPR, RBD immobilised on CM5 chip, antibody as analyte, 25℃, 1:1 model
SARS-CoV-2野生型 S蛋白 (假病毒) = SARS-CoV-2野生型 S蛋白 (假病毒) (SARS-CoV-2 野生型, UniProt P0DTC2 14-1273); test: cell-based or functional assay

Row | Binder | Kd [1] [nM] | 假病毒中和 IC50 (SARS-CoV-2野生型 S蛋白 (假病毒)) [µg/mL]
1 | 抗体Amb1 (antibody, V domains shown) VH: EVQLLESGTEVKKPGSSVKVSCKASGGTFSSYAISWVRQAPGQGLEWMGGIIPILGIANYAQKFQGRVTITADKSTSTAYMELSSLRSEDTAVYYCARERGYSGYGAAYYFDYWGQGTLVTVSS VL: QSVLTQAPSVSGAPGQSVTISCTGSSSNIGAGYDVHWYQQLPGTAPKLLIYGNNNRPSGVPDRFSGSKSGTSASLAITGLQAEDEADYYCQSYDSSLSKGVFGGGTKLTVL | 151 | 0.13
2 | 抗体Amb2 (antibody, V domains shown) VH: EVQLLESGPGLVKPSETLSLTCTVSGGSISNSSYYWGWIRQPPGKGLEWIGSIYYSGSTYYNPSLKSRVTISVDTSKNQFSLKLSSVTAADTGVYYCASWLYGDPISFDYWGQGTLVTVSS VL: not shown | 164 | 0.064
